Experimental data: PMC10786891, “Massively parallel profiling of RNA-targeting CRISPR-Cas13d”
Residue numbers refer to the chain shown, from its start. In names and notes the source's numbering stands.

Target: T1, EsCas13d, nuclease-dead (Eubacterium siraeum, UniProt B0MS50, R295A;H300A;R849A;H854A)
T1 sequence: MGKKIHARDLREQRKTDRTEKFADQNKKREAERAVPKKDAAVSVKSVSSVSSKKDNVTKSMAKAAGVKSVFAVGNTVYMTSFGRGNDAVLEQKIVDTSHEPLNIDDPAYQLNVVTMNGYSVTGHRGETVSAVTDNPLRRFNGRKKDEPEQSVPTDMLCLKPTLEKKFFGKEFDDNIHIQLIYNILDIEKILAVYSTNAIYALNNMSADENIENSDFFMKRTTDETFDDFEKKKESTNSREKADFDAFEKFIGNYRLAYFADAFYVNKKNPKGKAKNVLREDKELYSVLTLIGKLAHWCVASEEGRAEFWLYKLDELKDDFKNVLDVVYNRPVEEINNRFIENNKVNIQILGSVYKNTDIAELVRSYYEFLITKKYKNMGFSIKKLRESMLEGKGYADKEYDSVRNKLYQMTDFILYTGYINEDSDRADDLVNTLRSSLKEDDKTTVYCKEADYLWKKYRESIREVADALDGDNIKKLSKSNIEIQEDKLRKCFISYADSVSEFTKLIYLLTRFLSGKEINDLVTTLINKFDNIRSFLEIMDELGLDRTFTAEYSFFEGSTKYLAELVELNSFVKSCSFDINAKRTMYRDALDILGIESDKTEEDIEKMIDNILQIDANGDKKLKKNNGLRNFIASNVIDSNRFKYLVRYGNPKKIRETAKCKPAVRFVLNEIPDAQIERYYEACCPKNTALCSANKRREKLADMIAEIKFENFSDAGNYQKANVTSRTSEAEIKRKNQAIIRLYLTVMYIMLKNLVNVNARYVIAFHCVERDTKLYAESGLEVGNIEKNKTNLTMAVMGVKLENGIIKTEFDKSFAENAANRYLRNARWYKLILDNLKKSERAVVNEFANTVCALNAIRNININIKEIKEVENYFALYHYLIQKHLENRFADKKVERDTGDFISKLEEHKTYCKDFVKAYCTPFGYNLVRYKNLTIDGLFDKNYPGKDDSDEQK
Assay: crRNA (strand 1, pre-loaded); Mg2+; 40 mM Tris-HCl pH 7.5, 150 mM NaCl, 6 mM MgCl2, 1 mM DTT, 0.1% Tween-20, 0.2 mg/ml BSA; 25 C; 10 min per concentration, then washed
Details: tags: His6-TwinStrep-SUMO cleaved; N-terminal SNAP kept (SNAP-Surface 488); label: 3' end held by stalled T7 RNA polymerase

B1: target 1 insU 3' of 14,insU 3' of 9 (mixed)
RNA 1: CACCCGUGCAAAAAUGCAGGGGUCUAAAACUGAGCGGAUAACCUCUCUAUGG
RNA 2: GGGAAUGGAUCCACAUCUACGAAUUCGUACCAUAGAGAUGGUUAUUCCGCUCACCGAGAUCGGAAGAGCACACGU
B1 gave a Kd of 0.052 ± 0.009 µM.

B2: target 1 insC 3' of 13,insA 3' of 13 (mixed)
RNA 1: B1 RNA 1
RNA 2: B1 RNA 2 with U39G, G40C, G41A, U42G, A44U, U45A
B2 was tested, and the Kd was 0.0172 ± 0.0016 µM.

B3: target 1 U8C,C22A (mixed)
RNA 1: B1 RNA 1
RNA 2: GGGAAUGGAUCCACAUCUACGAAUUCGUAACAUAGAGAGGUUACCCGCUCACCGAGAUCGGAAGAGCACACGU
B3 gave a Kd of 0.0219 ± 0.0022 µM.

B4: target 1 insC 3' of 8,insA 3' of 8 (mixed)
RNA 1: B1 RNA 1
RNA 2: B1 RNA 2 with U39G, G41U, U43A, A44U, U45C, U46A
B4 showed a Kd of 0.0099 ± 0.0005 µM.

B5: target 3 insU 3' of 3,insA 3' of 1 (mixed)
RNA 1: CACCCGUGCAAAAUUGCAGGGGUCUAAAACGACCUGAAUAUUUCAGAUCAAA
RNA 2: GGGAAUGGAUCCACAUCUACGAAUUCGUUUUUGAUCUGAAAUAUUCAGGUUCAUGCAGAUCGGAAGAGCACACGU
For B5, the Kd was 0.0765 ± 0.0195 µM.

B6: target 3 insA 3' of 10 (mixed)
RNA 1: B5 RNA 1
RNA 2: GGGAAUGGAUCCACAUCUACGAAUUCGUUUUUGAUCUGAAAUAAUUCAGGUCUGCAGAUCGGAAGAGCACACGU
Binder B6 has a Kd of 0.0555 ± 0.013 µM.

B7: target 3 C6U,C16U (mixed)
RNA 1: B5 RNA 1
RNA 2: GGGAAUGGAUCCACAUCUACGAAUUCGUUUUUGAUUUGAAAUAUUUAGGUCUGCAGAUCGGAAGAGCACACGU
B7 gave a Kd of 0.0845 ± 0.02 µM.

B8: target 3 insU 3' of 3,insU 3' of 1 (mixed)
RNA 1: B5 RNA 1
RNA 2: B5 RNA 2 with A53U
B8 gave a Kd of 0.096 ± 0.0245 µM.

B9: target 3 complement block 1-7 (mixed)
RNA 1: B5 RNA 1
RNA 2: B7 RNA 2 with U36C, U45A, U46G, A47U, G48C, G49C, U50A, C51G
In the case of B9, the Kd is reported as 0.057 ± 0.0085 µM.

B10: target 3 U7C,U22A (mixed)
RNA 1: B5 RNA 1
RNA 2: B7 RNA 2 with U30A, U36C, U45C, U46C
In the case of B10, the Kd is reported as 0.0885 ± 0.0215 µM.

B11: target 3 insU 3' of 6,insU 3' of 5 (mixed)
RNA 1: B5 RNA 1
RNA 2: B5 RNA 2 with A47U, G48A, G49U, U50G, U51G, C52U, A53C
In the case of B11, the Kd is reported as 0.00793 ± 0.00061 µM.

B12: target 3 insU 3' of 22,insA 3' of 4 (mixed)
RNA 1: B5 RNA 1
RNA 2: GGGAAUGGAUCCACAUCUACGAAUUCGUUUUUUGAUCUGAAAUAUUCAGAGUCUGCAGAUCGGAAGAGCACACGU
B12 gave a Kd of 0.0695 ± 0.0155 µM.

B13: target 3 insC 3' of 22,insU 3' of 4 (mixed)
RNA 1: B5 RNA 1
RNA 2: B12 RNA 2 with U31C, A50U
In the case of B13, the Kd is reported as 0.00875 ± 0.0023 µM.

B14: target 3 insA 3' of 7,insC 3' of 3 (mixed)
RNA 1: B5 RNA 1
RNA 2: B5 RNA 2 with C46A, A47C, G48A, U50G, U51C, C52U, A53C
Binder B14 has a Kd of 0.0261 ± 0.00235 µM.

B15: target 3 insC 3' of 4,insA 3' of 4 (mixed)
RNA 1: B5 RNA 1
RNA 2: B5 RNA 2 with G49C, U50A, U51G, C52U, A53C
Work on B15 yielded a Kd of 0.0218 ± 0.00215 µM.

B16: target 3 C6G (mixed)
RNA 1: B5 RNA 1
RNA 2: B7 RNA 2 with U36C, U46G
B16 was tested, and the Kd was 0.0204 ± 0.0023 µM.

B17: target 3 U2C,A11C (mixed)
RNA 1: B5 RNA 1
RNA 2: B7 RNA 2 with U36C, A41C, U46C, U50C
For B17, the Kd was 0.0545 ± 0.0077 µM.

B18: target 3 insA 3' of 21,insA 3' of 21 (mixed)
RNA 1: B5 RNA 1
RNA 2: GGGAAUGGAUCCACAUCUACGAAUUCGUUUUAAUGAUCUGAAAUAUUCAGGUCUGCAGAUCGGAAGAGCACACGU
In the case of B18, the Kd is reported as 0.0298 ± 0.00405 µM.

B19: target 3 C1U,G4C (mixed)
RNA 1: B5 RNA 1
RNA 2: B7 RNA 2 with U36C, U46C, G48C, C51U
In the case of B19, the Kd is reported as about 0.0685 µM.

B20: target 3 A11C,U15C (mixed)
RNA 1: B5 RNA 1
RNA 2: B7 RNA 2 with U36C, U37C, A41C, U46C
B20 showed a Kd of 0.05 ± 0.009 µM.

B21: target 3 insU 3' of 22,insU 3' of 19 (mixed)
RNA 1: B5 RNA 1
RNA 2: B18 RNA 2 with A32U, A33U, U34G, G35U
With B21 the Kd was 0.054 ± 0.0145 µM.

B22: target 3 insA 3' of 7,insG 3' of 5 (mixed)
RNA 1: B5 RNA 1
RNA 2: B5 RNA 2 with C46A, A47C, G48A, U50G, U51G, C52U, A53C
For B22, the Kd was 0.042 ± 0.0065 µM.

B23: target 3 insG 3' of 9,insA 3' of 4 (mixed)
RNA 1: B5 RNA 1
RNA 2: B5 RNA 2 with U44G, C46U, A47C, G48A, U50A, U51G, C52U, A53C
B23 gave a Kd of 0.06 ± 0.0265 µM.

B24: target 3 insU 3' of 16,insG 3' of 1 (mixed)
RNA 1: B5 RNA 1
RNA 2: B12 RNA 2 with U33G, G34A, A35U, U36C, C37U, A50G, G51U, U52C, C53G
With B24 the Kd was 0.0455 ± 0.0115 µM.

B25: target 3 insC 3' of 5,insU 3' of 3 (mixed)
RNA 1: B5 RNA 1
RNA 2: B5 RNA 2 with G48C, U50G, C52U, A53C
With B25 the Kd was 0.00775 ± 0.0006 µM.

B26: target 3 G3C,A12G (mixed)
RNA 1: B5 RNA 1
RNA 2: B7 RNA 2 with U36C, A40G, U46C, G49C
Binder B26 has a Kd of 0.101 ± 0.033 µM.

B27: target 3 U7G (mixed)
RNA 1: B5 RNA 1
RNA 2: B7 RNA 2 with U36C, U45G, U46C
For B27, the Kd was 0.047 ± 0.008 µM.

B28: target 3 insA 3' of 4,insG 3' of 2 (mixed)
RNA 1: B5 RNA 1
RNA 2: B5 RNA 2 with G49A, U50G, C52G, A53C
B28 showed a Kd of 0.049 ± 0.007 µM.

B29: target 3 insG 3' of 1,insG 3' of 1 (mixed)
RNA 1: B5 RNA 1
RNA 2: B5 RNA 2 with U51C, C52G, A53G
B29 showed a Kd of 0.085 ± 0.0315 µM.

B30: target 3 C1U,U7G (mixed)
RNA 1: B5 RNA 1
RNA 2: B7 RNA 2 with U36C, U45G, U46C, C51U
B30 showed a Kd of about 0.04 µM.

B31: target 3 insA 3' of 22,insC 3' of 3 (mixed)
RNA 1: B5 RNA 1
RNA 2: B12 RNA 2 with U31A, A50G, G51C
B31 showed a Kd of 0.0151 ± 0.00155 µM.

B32: target 3 insA 3' of 21,insC 3' of 5 (mixed)
RNA 1: B5 RNA 1
RNA 2: B12 RNA 2 with U32A, G49C, A50G
In the case of B32, the Kd is reported as 0.0695 ± 0.0115 µM.
